Source: patent US20090130692A1

T1: porcine trypsin (Porcine), P00761
T1 chain: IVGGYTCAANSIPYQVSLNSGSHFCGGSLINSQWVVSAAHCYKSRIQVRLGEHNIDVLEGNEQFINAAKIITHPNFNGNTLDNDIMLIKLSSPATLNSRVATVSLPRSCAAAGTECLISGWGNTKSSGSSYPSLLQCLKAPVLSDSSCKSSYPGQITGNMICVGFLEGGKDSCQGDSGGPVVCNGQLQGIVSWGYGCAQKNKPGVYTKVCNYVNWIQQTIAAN

T2: human plasmin (Human), P00747
T2 chain: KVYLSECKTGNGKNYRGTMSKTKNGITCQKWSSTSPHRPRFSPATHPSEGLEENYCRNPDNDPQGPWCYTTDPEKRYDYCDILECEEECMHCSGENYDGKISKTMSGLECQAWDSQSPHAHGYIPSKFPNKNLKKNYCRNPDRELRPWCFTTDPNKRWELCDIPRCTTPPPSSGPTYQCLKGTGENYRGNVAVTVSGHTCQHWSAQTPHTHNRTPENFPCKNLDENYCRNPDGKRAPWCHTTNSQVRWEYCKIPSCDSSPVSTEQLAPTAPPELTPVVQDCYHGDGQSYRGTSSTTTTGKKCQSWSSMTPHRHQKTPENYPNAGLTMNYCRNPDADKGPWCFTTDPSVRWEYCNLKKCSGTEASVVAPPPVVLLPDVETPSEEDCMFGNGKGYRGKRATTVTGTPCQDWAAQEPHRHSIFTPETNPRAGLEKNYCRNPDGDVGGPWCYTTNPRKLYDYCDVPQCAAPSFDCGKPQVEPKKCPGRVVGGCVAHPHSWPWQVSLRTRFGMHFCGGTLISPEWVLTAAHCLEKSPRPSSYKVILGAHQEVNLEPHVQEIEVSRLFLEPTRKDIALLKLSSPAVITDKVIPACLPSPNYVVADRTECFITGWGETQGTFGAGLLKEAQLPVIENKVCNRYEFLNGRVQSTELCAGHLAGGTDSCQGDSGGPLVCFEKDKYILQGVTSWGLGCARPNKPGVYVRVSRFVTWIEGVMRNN

B1: MCoTI-KKV (peptide)
peptide: KKVGVCPKILKKCRRDSDCPGACICRGNGYCG
modifications: not checked
B2: SE-MG-0 (peptide)
peptide: GVCPKILKKCRRDSDCLAGCVCGPNGFCGS
modifications: not checked
B3: MCoTI-R (peptide)
peptide: GVCPRILKKCRRDSDCPGACICRGNGYCG
modifications: not checked
B4: MCoTI-LKAC (peptide)
peptide: GVCPKILKACRRDSDCPGACICRGNGYCG
modifications: not checked
B5: MCoTI-LKRC (peptide)
peptide: GVCPKILKRCRRDSDCPGACICRGNGYCG
modifications: not checked
B6: SE-MC-K (peptide)
peptide: GVCPKILKKCRRDSDCPGACICRGNGYCG
modifications: not checked
B7: MCoEeTI (peptide)
peptide: GSVCPKILKKCRRDSDCLAGCVCGPNGFCGS
modifications: not checked
B8: MCoTI-LAKC (peptide)
peptide: GVCPKILAKCRRDSDCPGACICRGNGYCG
modifications: not checked
B9: MCoTI-LRKC (peptide)
peptide: GVCPKILRKCRRDSDCPGACICRGNGYCG
modifications: not checked
B10: MCoTI-AlaG (peptide)
peptide: GVCPGILKKCRRDSDCPGACICRGNGYCG
modifications: not checked

Biological target: sheep tryptase ST2 (Sheep)
Sequence (Q9XSM2 29-273): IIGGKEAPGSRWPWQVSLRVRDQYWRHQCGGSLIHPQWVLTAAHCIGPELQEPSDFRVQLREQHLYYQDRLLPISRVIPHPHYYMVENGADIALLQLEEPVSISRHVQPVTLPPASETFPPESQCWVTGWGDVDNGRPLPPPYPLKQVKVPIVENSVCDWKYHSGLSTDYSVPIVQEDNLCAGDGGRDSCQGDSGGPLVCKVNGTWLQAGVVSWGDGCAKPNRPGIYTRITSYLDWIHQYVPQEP
Test: enzyme inhibition, selectivity panel; apparent Ki (Kiapp)

Row | Ki | Binder
1 | 100 nM | B1
2 | 4000 nM | B2
3 | 1000 nM | B3

Biological target: T1, porcine trypsin (Porcine), P00761
Test: as above

Row | Ki | Binder
4 | 0.4 nM | B1
5 | 0.3 nM | B2
6 | 0.8 nM | B3

Biological target: hK3 (human kallikrein) (Human), P07288
Sequence (P07288 25-261): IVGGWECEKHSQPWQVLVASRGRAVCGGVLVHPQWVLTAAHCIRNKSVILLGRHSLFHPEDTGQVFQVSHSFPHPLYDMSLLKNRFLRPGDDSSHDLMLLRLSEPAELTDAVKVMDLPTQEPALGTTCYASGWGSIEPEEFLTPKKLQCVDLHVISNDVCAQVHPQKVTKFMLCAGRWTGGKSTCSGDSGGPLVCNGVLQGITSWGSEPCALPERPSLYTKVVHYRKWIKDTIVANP
Test: as above

Row | Ki | Binder
7 | 100 nM | B3

Biological target: human tryptase β-II (Human), P20231
Sequence (P20231 31-275 limits assumed): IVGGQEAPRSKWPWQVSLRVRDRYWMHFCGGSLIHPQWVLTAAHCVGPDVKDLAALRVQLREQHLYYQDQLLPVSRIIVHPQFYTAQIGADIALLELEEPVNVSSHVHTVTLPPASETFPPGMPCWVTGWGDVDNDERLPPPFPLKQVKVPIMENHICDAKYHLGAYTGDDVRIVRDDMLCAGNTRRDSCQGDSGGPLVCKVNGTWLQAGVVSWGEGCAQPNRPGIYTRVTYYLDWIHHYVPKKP
Test: as above

Row | Ki | Binder
8 | 4 nM | B1
9 | 70 nM | B2
10 | 40 nM | B3

Biological target: human tryptase β-Ia (Human), Q15661
Sequence (Q15661 31-275 limits assumed): as the sequence (P20231 31-275 limits assumed) above, with R21H, D22G, R23P counted along it
Test: as above

Row | Ki | Binder
11 | 3 nM | B1
12 | 70 nM | B2
13 | 40 nM | B3

Biological target: T2, human plasmin (Human), P00747
Test: as above

Row | Ki | Binder
14 | 400 nM | B1
15 | 600 nM | B2

Biological target: bovine pancreatic trypsin (bovine), P00760
Sequence (P00760 24-246): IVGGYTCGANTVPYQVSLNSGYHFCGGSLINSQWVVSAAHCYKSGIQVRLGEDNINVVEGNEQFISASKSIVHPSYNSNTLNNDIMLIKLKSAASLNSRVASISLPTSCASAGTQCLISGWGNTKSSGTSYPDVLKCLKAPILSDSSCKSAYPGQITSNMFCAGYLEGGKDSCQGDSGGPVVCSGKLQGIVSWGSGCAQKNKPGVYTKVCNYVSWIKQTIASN
Test: enzyme inhibition; residual trypsin activity fitted to tight-binding equation (Morrison); apparent Ki (Kiapp)

Row | Ki | Binder
16 | 0.4 nM | B4
17 | 0.4 nM | B5
18 | 0.3 nM | B6
19 | 0.4 nM | B1
20 | 0.3 nM | B2
21 | 0.8 nM | B3
22 | 0.03 nM | B7
23 | 0.2 nM | B8
24 | 0.5 nM | B9
25 | 1000 nM | B10
